# ± gives the standard deviation.
# Assay: protein stability index of a GFP-peptide fusion (GPS, HEK-293T) (PSI 1-6); higher = more stable
# Details: c terminus: a fixed tail appended
# 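Further: 24-mer peptide tiles fused after GFP, lentivirally expressed, FACS-sorted into six equal bins by GFP/DsRed ratio, decoded by Illumina sequencing, PSI is the read-weighted mean bin number.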
Sequence,protein stability index (treatment: DMSO),"protein stability index (treatment: MLN4924 1 uM, 8 h)"
EKQELHRNMLGLLGNVAEVKELRP [ZER1],3.74 ± 0.16,4.04 ± 0.31
PKPLTRKPILLQRMEGSQEVVNMA [WDFY2],3.66 ± 0.049,3.65 ± 0.41
ENHPQESKGQPRSQEESEEGEEDA [CHGB],5.79 ± 0.094,5.64 ± 0.22
NNIKFKKSSILTRAGEQRKRSQSM [CLCN6],4.06 ± 0.41,4.39 ± 0.1
GWVSGQLRYSVVEESEPGTLVGNV [PCDHGC5],3.03 ± 0.24,3.07 ± 0.22
GIGYNGMPNGCSDDVLPWRRTAEN [DCTD],3.03 ± 0.24,2.87 ± 0.1
YAPSCAKCKKKITGEIMHALKMTW [PDLIM7],2.53 ± 0.33,2.44 ± 1
EATQFLKQILDGVHYLHSKRIAHF [DAPK3],2.9 ± 0.44,2.92 ± 0.56
VDFSLSGRLLFAGYNDYTINVWDV [GNB5],3.23 ± 0.53,2.58 ± 0.61
KLFCIPVHGIRSVGTAAVNMCLVA [IMPA1],2.4 ± 0.8,2.26 ± 0.85
YYSPILDQWTPIAAMLRGQSDVGV [KLHL13],2.4 ± 0.3,2.26 ± 0.3
MGQHISLAPIHKLEEALYEYQPLQ [MNAT1],3 ± 0.29,3 ± 0.048
EGASSDNGCEVKNRKSILSRHLNS [PHTF1],4.74 ± 0.46,4.68 ± 0.16
NGVTQKASAPTYPSLYSSYHQGCL [NANOGP8],2.75 ± 0.11,2.93 ± 0.34
YTYEKLLWTTSRVLKVLSVCSSNK [CTNNB1],2.47 ± 0.36,2.22 ± 0.43
TETDSLVSAQRERPRRRDGPEHAT [DVL3],5.24 ± 0.13,5.33 ± 0.3
PCSVIRPILKRLERPQDRDTPVQN [CDC25B],4.31 ± 0.15,4.51 ± 0.066
LRRWLRANLAASGGYAIAVVLLQG [TSPAN10],2.43 ± 0.68,2.35 ± 0.075
DAPLPGSKAKPKPPKQAQKEQRKQ [TBC1D10A],5.45 ± 0.087,5.31 ± 0.18
RPVNKLAELQCEVAALREEQKVLS [RASAL3],3.99 ± 0.35,4.19 ± 0.26
LREAEIARIRDEEAQRASFLQNAV [LRRC45],4.37 ± 0.18,4.43 ± 0.27
AVAQTAHLPADSEVTLEANPTSAP [RSAD1],5.4 ± 0.14,5.35 ± 0.23
QEQRLGIRISMSHEEEPLGTAGPL [GMPPB],4.82 ± 0.21,4.79 ± 0.34

Sequence,protein stability index (treatment: DMSO),"protein stability index (treatment: MLN4924 1 uM, 8 h)"
ELGKGAFSVVRRCMKIPTGQEYAA [CAMK2D],2.46 ± 0.21,2.2 ± 0.29
EVLDGVEDAEGEEEEEEEEEEEDD [FKBP8],5.46 ± 0.38,5.69 ± 0.23
AGNSSRNSSQSSSDGSCKTAGEMV [BTBD10],5.16 ± 0.35,5.14 ± 0.22
LPTDGSTGVELAPRSAEPGYLVTK [PCDHGA10],4.52 ± 0.17,4.66 ± 0.15
QVYLSHTAWTEACQVEVRLLLAYN [INTS4],3.15 ± 0.51,3.09 ± 0.19
ETDEDEEEGDEQQRLLNTPRRKKL [GMCL1],5.6 ± 0.3,5.63 ± 0.28
QHPDMSVTKVVVHKETEITPEDGE [EPB41L3],5.33 ± 0.23,5.39 ± 0.21
KGSSELGFPRVAPEDEVIVNQYVI [RNF208],2.8 ± 0.44,2.64 ± 0.36
KGGISETRIEKRIVITGDADIDHD [EPB41L3],5.31 ± 0.2,5.16 ± 0.51
CIDFNKNLNEDDTFLVFSKAELGA,2.88 ± 0.63,2.81 ± 0.24
SPQEDGQIMFDVEMHTSRDHSSQS [BNIP3L],5.21 ± 0.2,5.21 ± 0.13
CEKRCSYCNFNKYIPRRLEEAAMQ [RSAD1],2.4 ± 0.028,2.6 ± 0.31
LDSCKQLTLAQGAGEEDPSGMVTI [SMG5],4.46 ± 0.16,4.49 ± 0.4
MILLVNLFVLLSVVCVLLNLAGFI [FAM189A2],3.03 ± 0.34,3.14 ± 0.47
RWWEDLERDFPCPVCRKTSRYRSL [TRIM39],2.36 ± 0.21,2.77 ± 0.56
ECFMCSDCGLNLKQRGYFFLDERL [PDLIM4],2.26 ± 0.32,2.08 ± 0.34
KLATQHKQLISQTKKKQWCYNCEE [ZMYND11],3.48 ± 0.4,3.8 ± 0.23
DNDRTTPSDLDSTGNSLNEPEEPS [DLC1],5.61 ± 0.21,5.63 ± 0.11
GSGADRIYDLNIPAFVKFAYVAER [NCK2],2.35 ± 0.29,2.36 ± 0.13
DYRPMNHEAFKDELKTFRLKTRSW [CDC25B],3.46 ± 0.27,3.41 ± 0.25
WNDLRPKLSCLFAGPHSTLTPPCS [SNX8],2.27 ± 0.29,2.27 ± 0.39
ESDSQGQGNGLFYSSGPQSWYPKA [ZC2HC1C],3.62 ± 0.32,3.72 ± 0.34
SPMYFFLASLSFIDTVYSTAFAPK [OR4A15],3.01 ± 0.35,2.92 ± 0.54

Sequence,protein stability index (treatment: DMSO),"protein stability index (treatment: MLN4924 1 uM, 8 h)"
SKSCMRAVLEYLYTGMFTSSPDLD [RHOBTB2],2.28 ± 0.039,2.05 ± 0.49
HQPPQAGAGDVVLLQRELAQEDSL [LYSMD4],5.09 ± 0.13,5.04 ± 0.15
NGAGVTVLRREISELRTKVQEQQK [FBXO28],4.11 ± 0.23,4.21 ± 0.13
CEEWSFFHAYYYCFITLTTIGFGD [KCNK9],3.33 ± 0.098,2.96 ± 0.37
ALMHTLQRHRDILQVIYWARDVFI [GOSR1],2.84 ± 0.5,2.26 ± 0.47
KYENELALRQSVEADINGLRRVLD [KRT13],3.57 ± 0.17,3.65 ± 0.29
IRMIVRGTLGSCSSSSECLEDSTM [PLK2],2.3 ± 0.3,2.25 ± 0.12
MVAHDETGGLLPIKRTIRVLDVNN [NET1],3.27 ± 0.21,3.35 ± 0.25
TDAKKREALYAQDPSTGCYMYYFQ [KMT5A],2.48 ± 0.22,2.68 ± 0.35
RIADKFTQHNFQEVMESEEFMLLP [KLHL20],3.5 ± 0.35,3.54 ± 0.22
LSHSPQEDWVLLGMANGQQWLQST [TLE6],2.57 ± 0.3,2.52 ± 0.26
QSLPCTERKPAATARLSRRGTSLS [KISS1],4.71 ± 0.2,4.66 ± 0.32
ETENIIAANHWVLPAAEFHGLWDS [TRIP13],3.28 ± 0.29,3.36 ± 0.26
CANFGDQGITMGCWDMYRHDIDCQ [LOXL2],2.42 ± 0.29,2.6 ± 0.57
QNKAQRQKDLIMKVENLTLKNHFQ [TAF7L],3.08 ± 0.28,3.1 ± 0.13
EMEEELRYAPLSFRNPMMSKLRNY [VTI1B],2.78 ± 0.28,3.01 ± 0.25
GLVKKYMNSLLIGELSPEQPSFEP [FADS1],2.25 ± 0.089,2.34 ± 0.45
ADLLEEEVIISWSEKASKKYVSKE [EIF5],3.98 ± 0.31,4.16 ± 0.41
SITFTTGLEAPRDLEAKEVTPRTA [TNXB],5.22 ± 0.37,5.16 ± 0.3
AEEKEQLLHNDEYQETMVESTFMY [USP39],4.69 ± 0.27,4.8 ± 0.2
PSEDIWKKFELVPSPPTSPPWGLG [MYCL],3.04 ± 0.36,2.9 ± 0.37
DIYKQECSSRPLQKGSHPMCKEHE [TRIM63],4.49 ± 0.24,4.67 ± 0.23
NYYEVGSNRGAYVKLGPALTPHIV [PPEF2],2.19 ± 0.2,2.55 ± 0.32

Sequence,protein stability index (treatment: DMSO),"protein stability index (treatment: MLN4924 1 uM, 8 h)"
CHPDDQFTTSILRHWCMKHDELLA [INTS3],3.03 ± 0.28,3.06 ± 0.41
LEEYITDEQKEEEEEEGEEEELIR [FAM9B],5.37 ± 0.15,5.59 ± 0.33
SSKFYDLFLMECEESPNGSEGACE [RHOBTB1],3.72 ± 0.74,3.79 ± 0.1
HPEVKCVGSVALTALVTVSSEEFE [C8orf76],3.27 ± 0.19,3.31 ± 0.52
LRYVNSTRAPQRAHEVLQELRDIS [FBXO28],3.09 ± 0.21,3.35 ± 0.28
AQKQRLERALDATEVPFSITTDNL [TEKT4],4.72 ± 0.29,4.77 ± 0.22
LDVTVQSFGWSDRAKVKTDDIARI [FAM98B],2.98 ± 0.28,2.89 ± 0.36
EEEGIETQYFAELLMTSGVVLCEG [CNOT7],3.27 ± 0.24,3.39 ± 0.12
AAQEGHLELVKYLLAAGANVHATT [ANKRD17],2.34 ± 0.3,2.74 ± 0.35
LGCQGAQFVSSVPRCDLVDLGEGK [FAM189A2],4.31 ± 0.14,4.18 ± 0.13
VIDGATALWCAAGAGHFEVVKLLV [FEM1B],2.49 ± 0.89,2.36 ± 0.35
RAHPPQRPASSGGAHTLVNHGYAE [KCNA3],4.12 ± 0.13,3.94 ± 0.3
TKRCFRLAPTFSNLLLQPTTNPHT [SMG5],2.41 ± 0.22,2.59 ± 0.29
ETELSLRQLVEADINGLRRILDEL [KRT36],3.12 ± 0.3,3.36 ± 0.34
FPSLHQSLPQNQCYMATTKSQTAC [EHMT1],3.06 ± 0.15,3.47 ± 0.2
GSAEKQAGEAHMAADGETNGSCEN [EHMT1],5.49 ± 0.37,5.6 ± 0.2
TLVSSGSGTMGAAKVTGEVLDILT [FLOT1],2.97 ± 0.44,2.91 ± 0.49
PAMGLQKKLRLNGGRNPYEGRVEV [LOXL2],,4.08 ± 0.88
GAEQPPDLHCVLVTNPHSSQWKDP [GADD45A],4.29 ± 0.2,4.44 ± 0.12
MHHCKRYRSPEPDPYLSYRWKRRR [CLK3],3.49 ± 0.39,3.69 ± 0.21
RDKAEELLQLPDTKVGSFMIRESE [SLA],4.66 ± 0.37,4 ± 0.79
